Laboratory results reported in patent US20250059282A1.

Columns and labels:
Mouse PD-L2-Fc (mouse) = Mouse PD-L2-Fc (mouse) (UniProt Q9WUL5); experiment: ForteBio, IgG, avid
[1] = target: Cyno PD-L1-Fc (cynomolgus) (UniProt G7PSE7); experiment: ForteBio, IgG, avid
Mouse PD-L1-Fc (mouse) = Mouse PD-L1-Fc (mouse) (UniProt Q9EP73); experiment: ForteBio, IgG, avid
[2] = target: Cyno PD-L2-Fc (cynomolgus); experiment: ForteBio, IgG, avid
Human PD-L2-HIS (human) = Human PD-L2-HIS (human) (UniProt Q9BQ51); experiment: ForteBio, IgG, monovalent
Human PD-L1-HIS (human) = Human PD-L1-HIS (human) (UniProt Q9NZQ7); experiment: ForteBio, IgG, monovalent
Chain of Human PD-L1-HIS (human) (Q9NZQ7 19-238 limits assumed): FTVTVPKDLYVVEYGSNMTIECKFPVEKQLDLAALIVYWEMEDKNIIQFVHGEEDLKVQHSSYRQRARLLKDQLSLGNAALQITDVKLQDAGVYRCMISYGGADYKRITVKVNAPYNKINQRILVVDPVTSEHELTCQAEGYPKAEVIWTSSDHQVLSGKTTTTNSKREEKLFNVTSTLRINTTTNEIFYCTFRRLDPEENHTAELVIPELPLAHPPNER

Chain of Mouse PD-L2-Fc (mouse) (Q9WUL5 20-219 limits assumed): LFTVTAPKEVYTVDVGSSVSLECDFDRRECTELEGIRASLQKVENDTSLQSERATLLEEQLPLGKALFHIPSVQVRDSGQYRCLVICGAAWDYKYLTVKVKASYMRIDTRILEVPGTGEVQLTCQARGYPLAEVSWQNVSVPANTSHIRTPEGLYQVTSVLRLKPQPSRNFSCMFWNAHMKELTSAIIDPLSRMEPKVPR
Chain of Cyno PD-L2-Fc (cynomolgus) (chain, as listed by the source): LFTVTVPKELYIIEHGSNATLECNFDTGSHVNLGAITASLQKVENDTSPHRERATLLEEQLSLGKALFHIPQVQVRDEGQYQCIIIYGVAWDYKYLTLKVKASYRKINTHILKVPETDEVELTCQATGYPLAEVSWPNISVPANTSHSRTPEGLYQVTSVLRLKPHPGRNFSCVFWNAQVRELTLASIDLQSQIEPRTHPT
Chain of Human PD-L2-HIS (human) (Q9BQ51 20-220): as the sequence (chain, as listed by the source) above, with A19V, S62P, L67S, I139V, H166P, A178T, Q179H, I194M counted along it
Chain of Cyno PD-L1-Fc (cynomolgus) (G7PSE7 entry or part of it limits assumed): as the sequence (Q9NZQ7 19-238 limits assumed) above, with A33T, A34S, S62N, R68Q, Q82R, F173L, T185A, T192I, H215L counted along it
Chain of Mouse PD-L1-Fc (mouse) (Q9EP73 19-239 limits assumed): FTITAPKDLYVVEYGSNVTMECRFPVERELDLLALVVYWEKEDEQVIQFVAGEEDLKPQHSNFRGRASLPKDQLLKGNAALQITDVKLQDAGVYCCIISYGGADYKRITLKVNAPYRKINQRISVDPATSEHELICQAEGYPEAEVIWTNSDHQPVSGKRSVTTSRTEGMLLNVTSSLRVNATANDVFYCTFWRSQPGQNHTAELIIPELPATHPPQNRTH

Kd (Mouse PD-L2-Fc (mouse)): 0.694 nM | Kd [1]: 0.442 nM | Kd (Mouse PD-L1-Fc (mouse)): 2.97 nM | Kd [2]: 0.621 nM | Kd (Human PD-L2-HIS (human)): 2.2 nM | Kd (Human PD-L1-HIS (human)): 15.5 nM
B1: BiPDL3-54 (antibody, part only; not given: light chain variable domain, V domains shown, part only)
VH: QVQLQQWGAGLLKPSETLSLTCAVYGGSLSGYPWSWIRQPPGKGLEWIGETDVSGWTDYNPSLKSRVTISVDTSKNQFSLKLSSVTAADTAVYYCARDGRRMGTPSFDIWGQGTMVTVSS
